The values that follow come from the NTF2 design screens of Basanta et al. (2020).

The data set can be described thus: protease stability score; higher = more stable; yeast display proteolysis, trypsin and chymotrypsin.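 Further: relative to predicted unfolded state with 0 unfolded-like and 1 meaning tenfold more protease.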
The sequence “SDEEKESKHMFKIYLDFLRTGNEEQYSEMADPNVRIEVNGVTIHGRELAVKFMKEVRDEMRIHDYRIRHLDVFNGRVHADTEENVEFNGVRFITRTKIHLHIVNGRIKSVREEID” gave a protease stability score of 0.903. “SDEEKFFEKLLRDILHLWLTGDEDTFHQLLDPNMRSDVDGVDLHGRETVAKFLKERLKHLGIDHVQLESETAIGDKFFINTTISINGVETKMHLHFRVVNGVVHSLEVKVR” gave a protease stability score of 1.26.

Sequence “SDEEKFMHEMYELILKALHTGDEEFLEHFADPNTRLHINGRERHGRDEMKEFFKKFLDHWRIERFHVRSVEIFDGRVTSDTEIRGNIDGVRSEHRTDINIVIVNGRLKEINIHIE” registered a protease stability score of 0.537. To “SDEEKHAEEYHRQLTRDIMTGDEHILHELVDPHVLERVDGKDNHGWEEIAHFWVRFKNMRMHIEIHEIRHIGDFVDSDIKIRVVYNGKDITMRVHFHVEKINGRWLTTHIRIK” belongs 0.352. The value for “SDEEKIARLALEILIKILLTGDEKMILDNADPDVRLEVNGRQIHGMEWLSKIMTEWRFRDTHVRSVRNINGVVHVDGEQDVNYNGREETVHTHYIIEKVNGVWFLKRVVLH” was 1.44; that for “SDEERDANRFIKLWVDAMTTGDWEEISLLLDPNVLLLVGDKTYHGREEFVRIMHELIERVKNIRVEIKHREVQGDKIRVDTVLRVNGRTLREHVVMEKVNGQWVIRSLEFD” was 2.3; that for “SDEERDFTRLIRILRDALRTGDEHKLHELLDPHTRIIFDGQHHIGWERILEWADQIDHVHFRMTLHTVDIQGDKLRADLSLDVKIQVDGRTEHRHNVMHITVQKVNGRWRIQELYYK” was 1.27. “SDEERDSRKAEEKWIRTLETGDERIITELADPNVRLEIGDKTFHGREDFYKFMTYLTRHLRVERFEIKRFDFQGEWIHMKTHINMRVGEFSHHSDTEIVAYKVNGRWVIHNVRVE”: the protease stability score was 0.831.

As for “SDEEREFDIAFHLMRHVERTGDPHDMTKMADPNVRVDINGVEVVGREQLREEMRKLGVKYSHVEDFRTFDGRVILHGTLEINGQRRNTEIYASKINGRWHVEEYRFR”, the protease stability score is 1.14. In the case of “SDEEREIEHLARLFLEWWYTGDEDTIMKNADPHVRHDFNGVENIGRERVAEVVVHLIRELRIKSMHLHDIDIQGNKVDMNIELDGTYNGKRRKREMEIELVFINGRIKSSHVTIK”, the protease stability score worked out at 1.17. “SDEERHAEFVSRRILHALRTGDWEILFKMADPNVKSTIGDKHHHGWEIMSDMYKKLWEDLGVKHLDLKRITYVDGVVHIDERIRIGDKTHNVELNFVVIDGVLRSVEVHVR” had a protease stability score of 1.14. “SDEERLLHELLHRVLHKRVTGDEESIWREIDPRARIDVNGRDVHGRDHFFEFIVKWMMHYGINHLEIKNQREIDGRIDVDFHEEVGDKRFHVRIIFHKINGRWHLTQEVFT”: the protease stability score worked out at 1.19.

Sequence “SDEERLLKEIYRIWIRLFETGDWKEFEQMFDPNVRLIIGDKDLHGMELYSKFMRHFVEHIRFEDHQEHEIRVIGDKIHVHGREVGNVNGKRHRREIEIRLVVVNGVFKSEELRVH” came in with a protease stability score of 1.18. “SDEERSIKILIDLYRLAQETGDERIMREYADPDMKLDIGDKRDHGWEVLVRMVRHLRFHEIHIEHFEVQGNKMHITVRIDTEVNGQRWILRAHIIVTKFNGKWRIEHREEE”: the protease stability score amounted to 1.45. In turn, “SDEETITREYIRILIKMMRTGDESTLTRLADPHVRVDINGKDLHGRESLVEEMHKLIRDLGVERIEVHFRNIHIQGEWIVIHIDLQIGDKRFEVRDIALKIDGRWVHKSIEIQ” registered a protease stability score of 1.33.

“SDEHDVVRELLEIMEIVWRTGDWREMTKMFDPNTRISYGDKYIVGWEALEVLLKRIDHHTMHEIHFRDVHVQGDKIRLDGEVRFERHVGDYREHVTVDVHIHARKIDGRWINTNIRTH” gave a protease stability score of 0.743. “SDEHERLKRFAEEWIRAVITGDFDRLYELMDPHARYHQGDKNHHGRDQIRHFLHRFKNIRIDYHRIELIGDKVHMDGWINYDGKEVETKITVHVIDGRVHIIHVWEI” displayed a protease stability score of 1.39. As to “SDEHEWERHLYHVLIHAVNTGDEDLVTEMMDPHVRTDINGVELHGRNELSRQLKEMGIKHLEIEHLDFVGNFLVSQVRVDVNGVDYKSEIIALKINGKWLLSELRLE”, the protease stability score was determined as 1.04. For “SDEIEEVKTFVRLFTKDLETGNEEDLKRLADPNTRLDVNGREIHGWKSMEHRYRELMEKYKNLRIEVKIDDIRVQGDKIHIHTTIKLDYDGVDIELSSWLVIHKINGRWFVRSIEME”, the protease stability score came out at 0.605.

“SDEKKRLDDLAMTFLTLWMTGDWDHFARQADPHVRSDINGKELHGREIFVNFLREEMTRLGVDHFELHSVTVIDGKVHFDGEVDVNGVRHKTILWSVIFNGRIKSQEEEIR” returned a protease stability score of 1.15. On to “SDELEEALKWLEELMRLTLTGNWDRLDELVDPNAKEVINGKELHGMHFFRRVLHEIRFTHIDVQDIRLQGNYVEVDLRVEGNIDGRHVDLHTEVILLKVNGRWLHKMRILR”, for which the protease stability score came to 1.56. “SDEMEEYEDFMKRVLEALETGDFREIRHLFDPDVKIHIDGRDIVGRESYTEHVRKWREDLGFDHIHLKIHDVKLFDGQIHVDARLEIRIGDKRDSHNVEFRLHKVDGQWLVRRVHVH” returned a protease stability score of 1.6. To “SDEQEISEFILRIWLELVLTGDEKMMKKLFDPNTRFEINGVDIHGMESIAEHLLREREEWRSHITLTDREIQGDKVRVHTILKVDINGQHLRHHTRIIIIIINGRIHSIHIRVE” belongs 0.673; to “SDEQEMLTRIIEIFFHAVLTGDEETLIEMLDPHARLDVNGVTVIGMEKIWHHVEEMRFKDTKIHDIDVQGNKMKVDGRLDGQINGREHRFRTIIIIEKINGKWLVKRIIIL”, 2.44; to “SDEQRDVKFMLDQWLRSIETGNEDEIRHLVDPNVRSDINGQTHHGRDEYVRHMVEIRVILESIELHDLRWQGDKIDVDAIVQGTIIVNGRKTRFIERVHLHSVKVNGRWEIKEYRVV”, 1.42. Consider “SDETKRLEEHLKHRFRSMVTGNEEDISRLMDPNAKLIVGDKEFHGREIVLKLLLRWAHEMRLRHEEVEEIHIIGDYVRINGILHMEVGDKSIEIHTVIIILKIDGRWRDKTEHYG”, for which the protease stability score was 0.654. To “SDEYRRNHDLARDYVELFRTGNEEHLYELADPNTMLHIGEFQSHGREHVYEWLEKIHRHWGWENVEFRLESMQVQGDYATIHGLHKFNGRFIRMDHIIVVINGRMESIRVEIR” belongs 0.397; to “SDFEEEMKESFRLWVHALMTGDEDLLVELVDPDVRLHVGDKDFHGREHFRRWVHEFILRADHHIIHLRDFDVQGDKLHLHTQVDIKVNGQRHHTRVRIIAIKVDGRWVLTQFDVI”, 2.27.

For the sequence “SDFEEITRKITEIITRAFFTGDWRQIERLMDPEVRNELTIGDKRIERHGRENLVHLLEEAGIDVIRIRSVEIRFFNGRLEVRIDHEVTINGVHFKTVIVVIMIKIDGRWVVHSWSFHFE”, the protease stability score came to 0.959. Consider “SDHDEISHDMFRLWLELHLTGDPKVLADLFDPRVRLILEVGDKRIEVHGREEFERWYREEMRHLRIEHIHIEHVEVQGEKVHAIIEVHTHVNGRRHIHKTHITMDFIDGRFKRMKIDVK”, for which the protease stability score stood at 2.14. To “SDHDKRVMHIWRAVLESYLTGDEHTLKELIDPNTRFFIGDKEYHGMETFSRYARRMYEHLRFSIEVKHEDAINGRYDTHLTLHWEIGDKTDTYDTRLHLDVYDGVVKRLEIRVH” belongs 1.46; to “SDHEHMILHYARHVLELWFTGDWEIFEKLADPRAKMTVNGQELHGRESVSKWMHDKKEEIRMRDLRIHHIDVQGDFVILHLRVDFEVNGQRIDTHIEIYILVVNGQLREIEIREK”, 0.853. The sequence “SDHRRLLEELLKIIIKAMMTGDESTLERMFDPNVRINIDGVDDHGWESFDRMFHELRIDHARVEYIDVVNGRARVHTNFEVHFDGRRIHWETEIVVVIVNGRNREVSIIRH” yielded a protease stability score of 0.739.

Sequence “SDIDELDRELMEHTLRTIRTGDEETVHRLLDPDARTLINGREYHGREWATKMMSDWNRELGIDHLEIKHVDLINGKVRIDVKITVGDKEFHMTMVYNKVNGKWINHSIHIH” showed a protease stability score of 0.409. On to “SDIDNEADNLLRELSEVHQTGDWKTLLELADPNVQLIVNGRDLHGWEHLARRFTELRIHHVDHRIKHIHSYDGRVDLDGRLHYDGEINGRRDILHHEVSVHTKKIDGRWIISNIQIN”, for which the protease stability score is -0.21. On to “SDIEDESEKFVRMFLHSYETGDWKSLREMFDPNARTIIGDKHTHGRELAVELWEDLFKRLGIKHIEVTHVHIRVINGRIDVRIEVHLNQGEFRYHIIIIVHVTKFNGVWLLTEFRIEEK”, for which the protease stability score was determined as 1.27. “SDIEDHAIEFFSNELWSWHTGDEHDLKKLLDPNARIYINGVEVHGRERVLEDLIENMRRRGVRVNEVRVRDFHIVGNFLHFDVRIKYRVGDKILTYEVRILVLKIDGVWFFSELRIE” showed a protease stability score of 1.55.

“SDIEEMYRINLEIFEHSQQTGDWRMISHMADPNVRISVGDKEIHGRELFEKHLRDTVEKLGAEVHWELNHVRIQGDKLLVRGHLRIKYGDKHETFDIELYADKVDGKWLIHEIRVD” displayed a protease stability score of 1.44. The sequence “SDKDHLFKWAVRHLLEFTQTGNWEHMEHYLDPNVRLNFHIDGVSIERHGMEFLKKLLRDLSEDAGLDNINVQLHSFEIQGEKVNIHLKETFNGRHHETHNVVFKFDGRWKLTKSEVFFL” returned a protease stability score of 0.913. “SDKDKEFEKLFREYLRDLLTGDEESLRRLIDPNARFSYEVGDKTEERHGREEAVRWIIEIRIHSFRLRNSTYIGDKMHLEVESDGQYDGKRRFTEVHIEIILINGRVHEVHVWYV” gave a protease stability score of 1.01. For the sequence “SDKEEEAHRLLELLIHWYRTGDFETWRQLMDPHVRNVVDVNGRELHHHGREEVTDSLRFFWEHLGIKHVHFRHVEVQGDKIKLHGQQRVDGQEHQSDFIFIIVDGRVKFIFIHLR”, the protease stability score worked out at 0.649. With “SDLDDMATKLIHEWIHAELTGDFKRIEELIDPHVRIVIEVNGRRIELIGREELRRWLEEWMEEMRHEIKLTHIEVQGEKTHVDTHLVIRAENHSYHHKTSRIFIIINGRMHSIHVHIR”, the protease stability score was 1.7. Consider “SDLDEEARRWLEKHLKNFFTGDWDKFMNNVDPNVRYIVGDKHKIGMESFSKDEKEHRDQYDHLEFRIHHEDTYGEKAVSDMHVTYHINGREIRRRVHLSFLVINGKIKSVRIEFE”, for which the protease stability score is 0.469. Sequence “SDLDEVARHATQLIEEVQQTGDWHTLMRLADPNTRLLIGDKVIHGMTELIRILDELYERWGVSKVKVRLHDVRVQGDKVDVDTRSEFNGREVKVRFIIRKVDGRWHLKSVEEHLD” registered a protease stability score of 1.12.

On to “SDLDHQARRALEETFKAFETGDEHTWNRLVDPHVRLNVNGQEFHGMELIREWFKQDRDELRLKTIELKRVSVQGDYVHIDSTYYYEYNGQHRILEVHIHAVKFDGRWVVKRIHIH”, for which the protease stability score came out at 0.662. The value for “SDLDHRLRKLAEDLSRILETGNWRLMHKLADPNVKEDINGVEFHGRELLVKWLEDLLKELRVHFRVDHYDIQGNFLRVEITNNVFINGVQKVRDERLEVNMFDGKEKENRVRVE” was 0.717. As to “SDLDKLAIKIAKILVKNLETGNEKMLEHLLDPHVKLHIDGVTFIGREEVNKWVKHELDEMRSRWEVHDRRTQGEYAHTDSRMYLHINGKDIEIEVTIIFNVVNGRVTFIEHRIH”, the protease stability score was found to be 0.084.
